Data: publication PMC9288159, “Identification of a guanine-specific pocket in the protein N of SARS-CoV-2”

Molecular target: SARS-CoV-2 N protein C-terminal domain (NCTD) (SARS-CoV-2, UniProt P0DTC9 256-364)
Experiment: EMSA; […]; binding buffer not stated ([…]
Details: protein: recombinant; tags: N-terminal His6-TEV site (pET28a); chain copies: 2; label: 5' IRDye-800CW

Binder: CGGUUUCUCCG (ssRNA) [Oligo-U (SL5a G to U)]
- Kd: 140 ± 29 nM
